Test results: paper PMC8516096

What was measured:
Settings in all cases: Holoenzyme reconstitution: 200 mM Tris-HCl pH 8.0, 30 mM KCl, 10 mM MgCl2, 50 mM NaCl, 1 mM DTT, 1 mM EDTA, BSA 20 ug/ml, 30 C 45 min; DNA binding: 50 mM …
[1] = target: RNAP core enzyme (E, alpha2 beta beta' omega) (Escherichia coli) (UniProt P0A7Z4+P0A8V2+P0A8T7+P0A800); experiment: EMSA
[2] = target: RNAP core enzyme (E, alpha2 beta beta' omega);RpoD (sigmaD, sigma70) (Escherichia coli;Salmonella enterica serovar Typhimurium ATCC 14028?) (UniProt P0A7Z4+P0A8V2+P0A8T7+P0A800+P0A2E3); experiment: EMSA
[3] = target: T1, RNAP core enzyme (E, alpha2 beta beta' omega);RpoS (sigmaS, sigma38) (Escherichia coli;Salmonella enterica serovar Typhimurium ATCC 14028?) (UniProt P0A7Z4+P0A8V2+P0A8T7+P0A800+D0ZVL4); experiment: EMSA
[4] = target: T1, RNAP core enzyme (E, alpha2 beta beta' omega);RpoS (sigmaS, sigma38) (Escherichia coli;Salmonella enterica serovar Typhimurium ATCC 14028?); experiment: EMSA with anti-RpoS immunoblot
[5] = target: T2, RNAP core enzyme (E, alpha2 beta beta' omega);RpoS (sigmaS, sigma38);Crl (Escherichia coli;Salmonella enterica serovar Typhimurium ATCC 14028?;Salmonella enterica serovar Typhimurium ATCC 14028?) (UniProt P0A7Z4+P0A8V2+P0A8T7+P0A800+D0ZVL4+Q7CR52); experiment: EMSA with anti-RpoS immunoblot
[6] = target: T2, RNAP core enzyme (E, alpha2 beta beta' omega);RpoS (sigmaS, sigma38);Crl (Escherichia coli;Salmonella enterica serovar Typhimurium ATCC 14028?;Salmonella enterica serovar Typhimurium ATCC 14028?); experiment: competition EMSA with anti-RpoS immunoblot

Measured: binding

AGTACATATAGTTTCATCAGAAGATTAATCGATGGTGTTATCATTAGGAAGATAAATTTCTTCATATATAACCCAGTCGATGACTACAATTACTTTTTAATAAGATGGCGATGTAAAAACATCGTAACAGTTTATTTAATAAATAATTTTTCAAATTGTAAGTTTTTATGTC (double strand) [PssrA region]
binds: all assays above
